The values below come from patent US20240301062A1.

The target in experiment [1] is CD3ε/δ (SPR analyte) (UniProt P07766). Nature of the experiment: SPR, antibody captured by anti-human Fc.
For experiment [2] the target is unchanged. Briefly: SPR, antibody captured by anti-human Fc. This is another data set of the same source.
For experiment [3] the target is unchanged. Briefly: SPR.

Changes are numbered by the printed parent chain.

Chain of CD3ε/δ (SPR analyte) (P07766 23-126, stated change not applied, chain 1 of 2): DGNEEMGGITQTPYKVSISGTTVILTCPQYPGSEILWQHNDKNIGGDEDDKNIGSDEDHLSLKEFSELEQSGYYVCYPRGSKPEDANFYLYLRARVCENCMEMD
Chain of CD3ε/δ (SPR analyte) (P04234 22-105, stated change not applied, chain 2 of 2, further chain): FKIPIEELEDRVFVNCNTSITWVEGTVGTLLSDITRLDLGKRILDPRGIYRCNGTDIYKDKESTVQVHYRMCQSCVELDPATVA

B1: chimeric sp34 (ch-sp34) (antibody, V domains shown)
VH: EVQLVESGGGLVQPKGSLKLSCAASGFTFNTYAMNWVRQAPGKGLEWVARIRSKYNNYATYYADSVKDRFTISRDDSQSILYLQMNNLKTEDTAMYYCVRHGNFGNSYVSWFAYWGQGTLVTVSS
VL: QAVVTQESALTTSPGETVTLTCRSSTGAVTTSNYANWVQEKPDHLFTGLIGGTNKRAPGVPARFSGSLIGDKAALTITGAQTEDEAIYFCALWYSNLWVFGGGTKLTVL
In the experiment with CD3ε/δ (SPR analyte) [1], B1 came in with a Kd of 27.1 nM, a koff of 0.00296 s⁻¹ and an association rate constant (kon) of 109000 M⁻¹ s⁻¹.

B2: humanized sp34 BG56P (antibody, V domains shown)
VH: B1 VH with K15G, K19R, S77A, Q78K, S79N, I80S, N87S, K89R, T90A, M95V
VL: EIVLTQSPATLSVSPGERATLSCRSSTGAVTTSNYANWVQQKPGQAPRGLIGGTNKRAPGIPARFSGSLSGDEATLTISSLQSEDFAVYYCALWYSNLWVFGGGTKVEIK
On to B2, for which, in the experiment with CD3ε/δ (SPR analyte) [2], the Kd came out at 18.2 nM, the koff was 0.00112 s⁻¹ and the kon was determined as 61600 M⁻¹ s⁻¹. Also, in the experiment with CD3ε/δ (SPR analyte) [3], the Kd turned out to be 18.2 nM, the koff is 0.00112 s⁻¹ and the kon is 61600 M⁻¹ s⁻¹.

B3: humanized sp34 BG53P (antibody, V domains shown)
VH: B1 VH with K15G, K19R, S77A, Q78K, I80S, N87S, K89R, T90A
VL: B2 VL with E1Q, I2A, L4V, Q41E, A46L, P47F, R48T, V88I, Y90F
Turning to B3, in the experiment with CD3ε/δ (SPR analyte) [1], the Kd is 25.4 nM, the koff was determined as 0.00252 s⁻¹ and the kon came to 99300 M⁻¹ s⁻¹. In the experiment with CD3ε/δ (SPR analyte) [2], this molecule showed a Kd of 9.62 nM, a koff of 0.00105 s⁻¹ and a kon of 109000 M⁻¹ s⁻¹.

B4: humanized sp34 scFv BG561P (scFv-Fc) (Fc fusion, not shown: a dimerising Fc or GST)
scFv: EVQLVESGGGLVQPGGSLRLSCAASGFTFNTYAMNWVRQAPGKGLEWVARIRSKYNNYATYYADSVKDRFTISRDDAKNSLYLQMNSLRAEDTAVYYCVRHGNFGNSYVSWFAYWGQGTLVTVSSGGGGSGGGGSGGGGSEIVLTQSPATLSVSPGERATLSCRSSTGAVTTSNYANWVQQKPGQAPRGLIGGTNKRAPGIPARFSGSLSGDEATLTISSLQSEDFAVYYCALWYSNLWVFGGGTKVEIK
For B4, in the experiment with CD3ε/δ (SPR analyte) [3], the equilibrium dissociation constant (Kd) was determined as 25.9 nM, the koff was 0.00188 s⁻¹ and the kon amounted to 72500 M⁻¹ s⁻¹.
